B1: OR4K15 (parent)
chain: GUUAACGGUCAUAGGCCAUGGAAACUAGGAGCACCAUUUCGCUGCCAGUGAAGAAAUGAACAAAGAAAAUCUGGGCCAGGCAGGCAUCAAAAGAAAUAGUCUUGCGCUCAACCAGAAAGUCUGUAAUCAUUUUAAGGGUA

Variants of: B1
Experiment: self-cleavage, relative activity (ratio to wild type); higher = more cleavage; in vitro, sequencing; the parent is a self-cleaving ribozyme

Variant | self-cleavage
GUUAACGGUCAUAGGCCAUGGAAACUAGGAGCACCAUAUCGCUGCCAGUGAAGAAAUGAACAAAGAAAAUCUGGGCCAGGCAGGCAUCAUAAGAAAUAGUCUUGCGCUCAACCAGAAAGUCUGUAAUCAUUUUAAGGGUA [U38A A90U] | 2.21
GUUAACGGUCAUAGGCCAUGGAAACUAGGAGCACCAUUUCGCUGCCGGUGAAGAAAUGAACAAAGAAAAUCUGGGCCAGGCAGGCAUCAAAAGAAAUAGUCUUGCGCCCAACCAGAAAGUCUGUAAUCAUUUUAAGGGUA [A47G U108C] | 0.01
GUUAACGGUCAUAGGCCAUGGAAACUAGGAGCACCAUUUCGCUGCCAGUGAAGAAAUGAACAGAGAAAAUCUGGGCCAGGCAGGCAUCAAAAGAAAUAGUCUUGCGCUCAACCGGAAAGUCUGUAAUCAUUUUAAGGGUA [A63G A114G] | 0.86
GUUAACGGUCAUAGGCCAUGGAAACUAGGAGCACCGUUUCGCUGCCAGUGAAGAAAUGAACAAAGAAAAUCUGGGCCAGGCAGGCAUCAAAAGAAAUAGUCUUGCGCUCAACCAGAAAGUCUGUAAUCAUAUUAAGGGUA [A36G U131A] | 0.59
GUUAACGGUCAUAGGCCAUGGGAACUAGGAGCACCAUUUCGCUGCCAGUGAACAAAUGAACAAAGAAAAUCUGGGCCAGGCAGGCAUCAAAAGAAAUAGUCUUGCGCUCAACCAGAAAGUCUGUAAUCAUUUUAAGGGUA [A22G G53C] | 1.81
GUUAACGGCCAUAGGCCAUGGAAACUAGGAGCACCAUUUCGCUGCCAGUGAAGAAAUGAACAAAGAAAAUCUGGGCCAGGCAGGCAUCAAAAGAAAUAGUCUUGCGCUCAGCCAGAAAGUCUGUAAUCAUUUUAAGGGUA [U9C A111G] | 0.02
GUUAACGGUCAUAGGCCAUGGAAACUAGGAGCACCAUUUCGCUGCCAGUGAAGAAAUGAACAAAGGAAAUCUGGGCCAGGCAGGCAUCAAAAGAAAUAGUCUUGCGCUCAACCUGAAAGUCUGUAAUCAUUUUAAGGGUA [A66G A114U] | 0.08
GUUAACGGUCAUAGGCCAUGGAAACUAGGAGCACCAUGUCGCUGCCAGUGAAGAAAUGAACAAAGAAAAUCUGGGCCAGGCAGGCAUCAAGAGAAAUAGUCUUGCGCUCAACCAGAAAGUCUGUAAUCAUUUUAAGGGUA [U38G A91G] | 0.38
GUUAACGGUCGUAGGCCAUGGAAACUAGGAGCACCAUUUCGCUGCCAGCGAAGAAAUGAACAAAGAAAAUCUGGGCCAGGCAGGCAUCAAAAGAAAUAGUCUUGCGCUCAACCAGAAAGUCUGUAAUCAUUUUAAGGGUA [A11G U49C] | 0.39
GUUAACGGUCAUAGGCCAUGGAAACUAGGAGCACCAUUUCGCUGCCAGUGAAGAAAUGAACAAAGAAAAUCUGGGCCAGGCGGGCAUCAAAAGAAAUAGUCUUGCGCUCAACCAGAAAGUCAGUAAUCAUUUUAAGGGUA [A82G U122A] | 0.11
GUUAACGGUCAUAUGCCAUGGAAACUAGGAGCACCAUUUCGCUGCCAGUGAAGAAAUGAACAAAGAAAAUCUGGGCCAGGCAGGCAUCAAAAGAAAUAGUCUUGCGCUCAACCAGUAAGUCUGUAAUCAUUUUAAGGGUA [G14U A116U] | 0.11
GUUAACGGUCAUAGGCCAUGGAAACUAGGAGCACCAUUUCGCUGCCAGUGAAGAAAUGAACAAAGAAAAUCUGGGCCAGGCAGGCAUCAAAGGAAAUAGUCUUGCACUCAACCAGAAAGUCUGUAAUCAUUUUAAGGGUA [A92G G106A] | 0.02
GUUAACGGUCAUAGGCCAUGGAAACUAGGAGCACCAUUUCGCUGCCAGUGAAGAAAUGAACAAAGAAAAGCUGGGCCAGGCAGGCAUCAAAAGAAAUAGUCUUGCGCUCAACCAGAAGGUCUGUAAUCAUUUUAAGGGUA [U70G A118G] | 0.55
GUUAACGGUCAUAGGCCAUGGAAGCUAGGAGCACCAUUUCGCUGCCAGUGAAGAAAUGAACAAAGAAAAUCUGGGCCAGGCAGGCAUCAAGAGAAAUAGUCUUGCGCUCAACCAGAAAGUCUGUAAUCAUUUUAAGGGUA [A24G A91G] | 0.65
GUUAACGGUCAUAGGCCAUGGAAACUAGGAGCACCGUUUCGCUGCCAGUGAAGAAAUGAACAAAGAAAAUCUGGGCCAGGCAGGCAUCAAAAGAAAUAGUCUUGCGCUCAACCAGAAAGUCUGUAACCAUUUUAAGGGUA [A36G U127C] | 1.34
GUUAACGGUCAUAGGCCAUGGAGACUAGGAGCACCAUUUCGCUGCCAGUGAAGAAAUGAACAAAGAAAAUCUGGGCCAGGCAGGCAUCAAAAGCAAUAGUCUUGCGCUCAACCAGAAAGUCUGUAAUCAUUUUAAGGGUA [A23G A94C] | 1.14
GUUAAUGGUCAUGGGCCAUGGAAACUAGGAGCACCAUUUCGCUGCCAGUGAAGAAAUGAACAAAGAAAAUCUGGGCCAGGCAGGCAUCAAAAGAAAUAGUCUUGCGCUCAACCAGAAAGUCUGUAAUCAUUUUAAGGGUA [C6U A13G] | 1.29
GUUAACGGUCAUAGGCCAUGGAAACUAGGAGCACCAUUUCGCUGCCAGUGAAGAAAUGAACAAAGAAAAUCUGGGCCAGGCAGGCAUCAAAAGAAAUAGUCUUGCGCUCAACCAGAAAGUCUGUAAUCAUUUAAAUGGUA [U133A G136U] | 0.91
GUUAACGGUCAUAGGCCAUGGAAACUAGGAGCACCAUUUCGCUGCCAGUGAAGAGAUGAACAAAGAAAAUCUGGGCCAGGCAGGCAUCAAAAGAAAUAGUCUUGCGCUCAACCAGAAAGUCUGAAAUCAUUUUAAGGGUA [A55G U124A] | 0.97
GUUGACGGUCAUAGGCCAUGGAAACUAGGAGCACCUUUUCGCUGCCAGUGAAGAAAUGAACAAAGAAAAUCUGGGCCAGGCAGGCAUCAAAAGAAAUAGUCUUGCGCUCAACCAGAAAGUCUGUAAUCAUUUUAAGGGUA [A4G A36U] | 0.79
GUUAACGGUCAUAGGCCAUGGAAACUAGGAGCACCAUUUCGCCGCCAGUGAAGAAAUGAACAAAGAAAAUCUGGGCCAGGCAGGCAUCAAAAGAAAUAGUCUUGCGCUCAACCAGAAUGUCUGUAAUCAUUUUAAGGGUA [U43C A118U] | 0.87

Variant | self-cleavage
GUUAACGGUCAUAGGCCAUGGAAACUAGGAGCACCAUUUCGCUGCCAGUGAAGAAAUGAACAAAGAAAAUCUGGGCCAGGCAGGCAUCAAAAGAAAUAGUCUUGCGCUCCACCAGAAAGUCUGUAAUCAUUAUAAGGGUA [A110C U132A] | 0.25
GUUAACGGUCAUAGGCCAUGGAAACUAGGAGCACCCUUUCGCUGCCAGUGAAGAAAUGAACAAGGAAAAUCUGGGCCAGGCAGGCAUCAAAAGAAAUAGUCUUGCGCUCAACCAGAAAGUCUGUAAUCAUUUUAAGGGUA [A36C A64G] | 2.21
GUCAACGGUCAUAGGCCAUGGAAACUAGGAGCACCAUUUCGCUGCCAGUGAAGAAAUGAACAAAGAAAAUCUGGGCCAGGCAGGCAUCAAAAGAAAUAGUCUUGCGCUCAACCAGAAAGUCUGUAAUCAUCUUAAGGGUA [U3C U131C] | 0.51
GUUAACGGUCAUAGGCCAUGGAAACUAGGAGCACCAUUUCGCUGCCAGUGAAGAAAUGAACAAAGAAAAUCUGGGCCAGACAGGCAUCAAAAGAAAUAGUCUUGCGCUCAACCAGAAAGUCUGUUAUCAUUUUAAGGGUA [G80A A125U] | 0.24
GUUAACGGUCAUAGGCCAUGGAAACUAGGAGCACCAUUUCGCUGCCAGUGUAGAAAUGAACAGAGAAAAUCUGGGCCAGGCAGGCAUCAAAAGAAAUAGUCUUGCGCUCAACCAGAAAGUCUGUAAUCAUUUUAAGGGUA [A51U A63G] | 1.62
GUUAACGGUCAUAGGCCAUGGAAACUAGGAGCACCAUUUCGCUGCCUGUGAAGAAAUGAGCAAAGAAAAUCUGGGCCAGGCAGGCAUCAAAAGAAAUAGUCUUGCGCUCAACCAGAAAGUCUGUAAUCAUUUUAAGGGUA [A47U A60G] | 0.42
GUUGACGGUCAUAGCCCAUGGAAACUAGGAGCACCAUUUCGCUGCCAGUGAAGAAAUGAACAAAGAAAAUCUGGGCCAGGCAGGCAUCAAAAGAAAUAGUCUUGCGCUCAACCAGAAAGUCUGUAAUCAUUUUAAGGGUA [A4G G15C] | 1.28
GUUAACGGUCAUGGGCCAUGGAAACUAGGAGCACCAUUUCGCUGCCAGUGAAGAAAUGAACAAAGAAAAUCUGGGCCAGGCAGGCAUCAAAAGUAAUAGUCUUGCGCUCAACCAGAAAGUCUGUAAUCAUUUUAAGGGUA [A13G A94U] | 1.4
GUUAACGGUCAAGGGCCAUGGAAACUAGGAGCACCAUUUCGCUGCCAGUGAAGAAAUGAACAAAGAAAAUCUGGGCCAGGCAGGCAUCAAAAGAAAUAGUCUUGCGCUCAACCAGAAAGUCUGUAAUCAUUUUAAGGGUA [U12A A13G] | 1.28
GUUAACGGUCAUAGGCCAUGGAAACUAGGAGCACCAUUUCGCUGCCAGUGAAGAAAUGAACAAAGAAAAUCUGGGCCAGGCAGGCAUCAAGAGAAGUAGUCUUGCGCUCAACCAGAAAGUCUGUAAUCAUUUUAAGGGUA [A91G A96G] | 1.3
GUUAACGGUCAUAGGCCACGGAAACUAGGAGCACCAUUUCGCUGCCAGUGAAGAAAUGAACAAAGAAAAUCUGGGCCAGGCAGGCAUCAAAAGAAAUAGUCGUGCGCUCAACCAGAAAGUCUGUAAUCAUUUUAAGGGUA [U19C U102G] | 0.78
GUUAACGGUCAUAGGCCAUGGAAACUAGGAGCACCAUUUCGCUGCCAGUGAAGGAAUGAACAAAGAAAAUCUGGGCCAGGCAGGCAUCAAAAGAAAUAGUCUUGCGCUCAACCAGAAAGUCUGUAAUCAUUUUAGGGGUA [A54G A135G] | 1.13
GUUAACGGUCAUAGGCCAUGGAAACUAGGAGCACCAUUUCGCUGCCAGUGAAGAAAUGAACAAAGAGAAUCUGGGCCAGGCCGGCAUCAAAAGAAAUAGUCUUGCGCUCAACCAGAAAGUCUGUAAUCAUUUUAAGGGUA [A67G A82C] | 0.13
GUAAACGGUCAUAGGCCAUGGAAACUAGGAGCACCAUUUCGCUGCCAGUGAAGAAAUGAACAAAGAAGAUCUGGGCCAGGCAGGCAUCAAAAGAAAUAGUCUUGCGCUCAACCAGAAAGUCUGUAAUCAUUUUAAGGGUA [U3A A68G] | 2.27
GUUAACGGUCAUAGGCCAUGGAAACUAGGAGCACCAUAUCGCUGCCAGUGAAGAAAUGAACAAAGAAAAUCUGGGCCAGGCAGGCAUCAAGAGAAAUAGUCUUGCGCUCAACCAGAAAGUCUGUAAUCAUUUUAAGGGUA [U38A A91G] | 1.4
GUUAACUGUCAUAGGCCAUGGAAACUAGGAGCACCAUUUCGCUGCCAGUGAAGAAAUGAACAAAGAAAAUCUGGGCCAGGCAGGCAUCAAAAGAAAUAGUCUUGCGCUCAACCAGAGAGUCUGUAAUCAUUUUAAGGGUA [G7U A117G] | 1.7
GUUAACGGUCAUAGGCCAUGGAAACUAGGAGCACCAUUCCGCUGCCAGUGAAGAAAUGAACAAAGAAAAUCUGGGCCAGGCAGGCAUCAAAAGAAAUAGUCUUGCGCUCAACCAGAAAGUCCGUAAUCAUUUUAAGGGUA [U39C U122C] | 1.84
GUUAACGGUCAUAGGCCAUGGAAACUAGGAGCACCAUUUCGCUGCCAGUGAAGAAAUGAUCAAAGAAAAUCUGGGCCAGGCAGGCAUCAAAAGAAAUAGUCUUGCGCUCGACCAGAAAGUCUGUAAUCAUUUUAAGGGUA [A60U A110G] | 0.24
GUUAACGGUCAUAGGCCAUGGAAACUAGGAGCACCAUUUCGCUGCCAGUGAAGAAAUGAACAAAGAAAAUCUGGGCCAGGUAGGCAUCAAAAGAAAUAGUCUUGCGCUCAACCAGAAAGUCCGUAAUCAUUUUAAGGGUA [C81U U122C] | 0.29
GUUAACGGUCAUAGGCCAUGGAAACUAGGAGCACCAUUUCGCUGCCAGUGGAGAAAUGAACAAAGAAAAUCCGGGCCAGGCAGGCAUCAAAAGAAAUAGUCUUGCGCUCAACCAGAAAGUCUGUAAUCAUUUUAAGGGUA [A51G U72C] | 0.38
